The source of these data is paper PMC6191538.

In the assay the target is Hoc- Soc- phage T4 particles (capsid) (phage T4) (UniProt P13332). Description: co-sedimentation.

Consider Soc-PA (93 kDa), for which the BC50 (half-maximal binding concentration) was found to be 1140 nM.
